The numbers were not newly measured in article doi:10.1101/2024.07.26.605324, which cites them from elsewhere.

The series deals with His27 (position 27, …). The series can be described thus: NMR. Particulars: 243–263 K; membrane-bound tetramer, wild type with both His19 and His27 tetrads.

“And” between values parts separate entries of the source, which are not always exact repeats. Equal entries are not always repeated.

B1: Influenza B virus matrix protein 2 (BM2) proton channel (Influenza B virus) (peptide)
chain: MLEPFQILSICSFILSALHFIAWTIGHLNQIKR
As usually defined, the pKa is the negative logarithm of the acid dissociation constant. Take B1: the pKa was 5.9±0.1 and 5.8±0.1.
